Measurements from the RNAGym collection of RNA variant scans (doi:10.1073/pnas.2313332121).
Fewer inactive variants are shown than the library holds.

B1: TPR 5TU (parent)
chain: GGAUCUUCUCGAUCUAACAAAAAAGACAAAUCUGCCACAAAGCUUGAGAGCAUCUUCGGAUGCAGAGGCGGCAGCCUUCGGUGGCGCGAUAGCGCCAACGUUCUCAACUAUGACACGCAAAACGCGUGCUCCGUUGAAUGGAGUUUAUCAUG

Variants of: B1
Test: polymerase ribozyme fitness, log enrichment relative to wild type (log ratio); higher = more active; in vitro selection for triplet polymerase activity
Procedure, shortened: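 Fitness compares each genotype's enrichment to that of the wild type on a logarithmic scale, averaging replicates with inverse-variance weights. The logarithm is base 2. Enrichment came from Illumina sequencing of input and output libraries after one triplicate round of in vitro selection, which included frozen incubation at −7 °C, of PCR-built, transcribed mutant libraries of each subunit of a heterodimeric triplet polymerase ribozyme. Only genotypes with ≥10 input reads and ≥1 read per output were kept.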

Variant	polymerase ribozyme fitness (log ratio)
GGAUCUUCUCGAUUUAACAAAAAAGACAAAUCUGCCACAAAGCUUGAGAGCAUCAUCGGAUGCAGAGGCGGCAGCCUUCGGUGGGGCGAUAGUGCAAACGUACUCAACUAUGACGCGCAAAACGCGUGCUCCGUUGAAUGGAGUUUAUCAUG	≤ -4.2
GGAUCUUCUCGAUUUAACAAAAAAGACAAAUCUGCCACAAAGCUUGAGAGCAUCUUCGGAUGCAGAGGCGGCAGCCUUCGGUGGCGCGAUAGCACCAACGUUCUCAACUAUGACACGCAAAACGCGUGCUCCGUUUAAUGGAGUUUAUCAUG	-3.85
GGAUCUUCUCGAUCAAACAAAAAAGACAAAUCUGCCACAAAGCUUGAGAGCAUCAUCGAAUGCAGAGGCGGCAGCCUUCGGUGGCGCGAUAGCGCCAACGUUCUCAACUAUGACACGCAAAACGCGUGCUCCGUUGAAUGGAGUUUAUCAUG	0.845
GGAUCUUCUCGAUCAAACAAAAAAGACAAAACUGCCACAAAGCUUGAGAGCAUCUUCGGAUGCAGAGGCGGCAGCCUUCGGUUGCGCGAUAGCGCCAACGUUGUCAACUAUGACACGCAAAACGCGUGCUCCGUUGAAAGGAGUUUAUCAUG	≤ -4.2
GGAUCUUCUCGAUCAAACAAAAAAGACAAAUCUGCCACAAAGUUUGAGAGCAGCUUCGGAUGCAGAGGCGGCAGCAUUCGGUGGCGCGAUAGCGCCAACGUGCUCAACUAUGACACGCGAAACGCGUUCUCCGUGGAAUGGUGUUUAUCAUG	≤ -4.2
GGAUCUUCUCGAUCAAACAAAAAAGACAAAUCUGCCACAAAGCUUGAGAGCAUCUUCGAGUGCAGAGGAGGCAGCCUUCGGUGGCGCGAUAGCGCCAACGUUCUCAACUAUGACACGCAACACGCGUGCUCCGUUGAAUAGAGUUUAUCAUG	-3.82
GGAUCUUCUCGAUUUAACAAAAAAGACAAAUCUGCCACAAAGCUUGAGAGCAUCUUCGGAUGCAGAGGCGGCAGCCUUCGGUGACGCGAUAGCGCCAACGUUCUCAACUAUGACACGCAAAACGCGUGCUCCGUUGAAUGGAGUUUAUCAUG	-1.56
GGAUCUUCUCGAUUGAACAAAAAAGACAAAUCUGCCACAACGCUUGAGCGCAUGUUCGGAUGCAGAGGCGGCAGGCUUCGGUGGCGCGAUAGCGCUAACGUUCUCAACUAUGACACGCAAAAAGCGUGCUCCGUUGUAUGAACUUUAUCAUG	≤ -4.2
GGAUCUUCUCGAUUAAACAAAAAAGACAAAUCUGCCACAAAGCUUGAGAGCAUCUUCGGAUGCAGAGGCGGCAGCCUUCGGUGGCGCGAUAGUGCCAACGAUCUCAACUAUGACACGCAAAACGCGUGCUCCGUUGAAUGGAGUUUAUCAUG	-2.56
GGAUCUUCUCGAUUUAACAAAAAAGACAAAUCUGCCACAAAGCUUGAGAGCAGCUUCGGAUGCAGAGGCGGCAGCCUUCGGUGGCGCGAUAGCGCCAACGUUCUCAACUAUGACACGCAAAACGCGUGCUCCGUUGAAUGGAGUUUAUCAUG	-3.01
GGAUCUUCUCGAUUUAACAAAAAAGACAAAUCUGCCACAAAGCUUGAGAGCAUCUUCGGAUGCAGAGGCGGCAGCCUUCGGUGGCGCAAUAGCGCCAACGUUCUCAACUAUGACACGCAAAACGCGUGCUCCGUUGAAUGGAGUUUAUCAUG	-4.2
GGAUCUUCUCGAUCAAAGAAAAAAGAUAAAUCUGCCACAAAGCUUGAGAGCAUCAUCGGAUGCAGAGGCGGCAGCCUUCGGUGGCACGAUAGCGCGAACGUUCACAACUAUGACACGCAAAACGCGUGCUCCGUUGAAUGGAGUUUAUCGUG	≤ -4.2
GGAUCUUCUCGAUUUAACAAAAAAGACAAAACUGCCACAAAGCUUGACAGCAUCUUCGGAUGCAGACGCGGCAGCCUUCGGUGGCGCGAUUGCGCCAACGUUCUCAACUAUGACACGCAAAACGCGUGCUCCGUUGAAUGGAGUUUAUCAUG	≤ -4.2
GGAUCUUCUCGAUCAAACAAAAAAGACAUAUCUGCCACAAAGCUUGAGAGCAUCUUCGUAUGCAGAGGCGGCAGCCUUCGGUGGCGCGAUAGCGUCAACGUUCUCAACUAUGACACGCAGAACGCGGGCUCCGUCGAAUGGAAUUUAUCAUG	≤ -4.2
GGAUCUUCUCGAUUUAACAAAAAAGACAAAUCUGCCACAAAGCUUGAGAGCAUCUUCGGAUGCAGAGGCGGCAGCCUUCGGUGGCGCGAUAGCGCCAACGUUCUCAACUAUGACACGCAAAACGCGUGCUCCGUUGAAUAGAGUUUAUCAUG	≤ -4.2
GGAUCUUCUCGAUUUAACAAAAAAGACAAAUCUGCCACAAAGCUUGAGAGCAUCUUCGGAUGCAGAGGCGGCAGCCUUCGGUUGCGCGAUAGCGUCAACGUUCUCAACUAUGACAUGCAAAACGCGUGCUCCGUUGAAUGGAGUUUAUCAUG	-1.49
GGAUCUUCUCGAUUUAACAAAAAAGACAAACCUGCCACAAAGCUUGAGAGCAUCUUCGGAUGCAGAGGCGGCAGCUUUCGGUGUCGCGAUAGCGCCAACGUUCUCAACUAUGACACGCAAAACGCGUGCUCCGUUGAAUGGGUUUGAUCAUG	≤ -4.2
GGAUCUUCUCGAUCAAACAAAAAAGACAAAUCUGCCACAAAGCUUGAGAACAUCUUCGGAUGCAGAGGCGGCAGCCUUCGGUGGCGCGAUAGCGCCAACGUUCUCAACGGUGACACGCAAAACGCGUGCUCCGUUGAAUGGAGUUUAUCAUG	≤ -4.2
GGAUCUUCUCGAUCAAACAAAAAAGACAAAUCUGCCACAAAGCUUGCGAGCAUGUUCGGAUGCAGAGGCGGCAGCCUUCGGUGGCGCGAUAGCGCCAACGUUCUCAACUAUGACGCGCAAAACGCGCGCUCCGUUGAAUGGAGUUAAUCAUG	-1.14
